Experimental data published in publication PMC11347163, “Structural analysis of the BisI family of modification dependent restriction endonucleases”.

Experiments:
[1] = target: NhoI (Nitrolancea hollandica); test: crystal structure; sitting drop vapor diffusion at 18°C; proteins crystallised without DNA and as specific complexes with tetra-methylated GCNGC dsDNA, with Ca2+
[2] = target: Eco15I_Ntd (N-terminal catalytic domain of Eco15I) (Escherichia coli strain 541-15); test: as above
NhoI = target: T1, NhoI (UniProt I4EG67); test: crystal structure; Ca2+ in active site; SPR: 20 mM HEPES pH 7.8, 50 or 150 mM KCl, 1 mM CaCl2, 1 mM DTT, 0.05% Tween-20, 25 C; EMSA: 20 mM HEPES pH 7.8, 50 mM KCl, 1 mM DTT, 1 mM CaCl2, on ice 30 min, unlabeled unmodified oligo or salmon sperm DNA competitor; settings: protein: recombinant; tags: 6xHis-SUMO removed by Ulp1; chain copies: 2; blunt
T1 sequence: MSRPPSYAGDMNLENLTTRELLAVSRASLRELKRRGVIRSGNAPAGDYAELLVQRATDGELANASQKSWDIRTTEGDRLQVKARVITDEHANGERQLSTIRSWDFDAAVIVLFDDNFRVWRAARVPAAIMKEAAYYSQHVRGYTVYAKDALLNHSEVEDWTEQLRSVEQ

[3] = target: T2, Eco15I_Ntd (N-terminal catalytic domain of Eco15I) (UniProt A0A0L6ZWS4); test: as above; settings: protein: recombinant; tags: 6xHis-SUMO removed by Ulp1; chain copies: 2; blunt
T2 sequence: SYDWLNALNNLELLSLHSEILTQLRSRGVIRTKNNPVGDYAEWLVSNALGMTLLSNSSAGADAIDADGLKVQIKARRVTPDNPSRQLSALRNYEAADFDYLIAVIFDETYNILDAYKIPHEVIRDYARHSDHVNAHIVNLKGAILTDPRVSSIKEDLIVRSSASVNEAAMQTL

[4] = target: T2, Eco15I_Ntd (N-terminal catalytic domain …); test: SPR; 1 mM Ca2+; 50 mM KCl; SPR: 20 mM HEPES pH 7.8, 50 or 150 mM KCl, 1 mM CaCl2, 1 mM DTT, 0.05% Tween-20, 25 C; EMSA: 20 mM HEPES pH 7.8, 50 mM KCl, 1 mM DTT, 1 mM CaCl2, on ice 30 min, unlabeled unmodified oligo or salmon sperm DNA competitor; settings: protein: recombinant; tags: 6xHis-SUMO removed by Ulp1; chain copies: 2; label: 5' biotin
[5] = target: T3, Eco15I_Ctd (C-terminal domain of Eco15I) (UniProt A0A0L6ZWS4); test: as above; settings: protein: recombinant; label: 5' biotin
T3 sequence: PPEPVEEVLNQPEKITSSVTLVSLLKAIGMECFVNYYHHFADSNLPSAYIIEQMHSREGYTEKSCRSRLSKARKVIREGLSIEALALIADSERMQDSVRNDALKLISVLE

Work on NhoI (enzyme) yielded a stoichiometry N [1] of 2.

In the case of “Eco15I_Ntd (N-terminal catalytic domain of Eco15I) (domain or fragment)”, the stoichiometry N [2] is reported as 2.

B1: NhoI co-crystal duplex, tetramethylated GCAGC (dsDNA)
DNA 1: CTGCAGCTC
DNA 2: GAGCTGCAG
modifications: 5mC at positions 4 and 7 of strand 1; 5mC at positions 4 and 7 of strand 2
B1: binds (NhoI).

B2: Eco15I_Ntd co-crystal duplex, tetramethylated GCAGC (dsDNA)
DNA 1: AAGCAGCAA
DNA 2: TTGCTGCTT
modifications: 5mC at positions 4 and 7 of strand 1; 5mC at positions 4 and 7 of strand 2
B2: binds [3].

B3: SPR duplex, four 5mC in GCNGC (dsDNA)
DNA 1: CGGTTGAGCAGCACCTCAGA
DNA 2: TCTGAGGTGCTGCTCAACCG
modifications: 5mC at both internal and both external cytosines
B3: binds [4]; no binding [5].
